From patent US20220348675A1 (I MAB BIOPHARMA US, published 2022)
Residue numbers refer to the chain shown, from its start.

How the values were obtained:
[1] = target: T1, human 4-1BB-His protein (human, UniProt Q07011 24-186); assay: ELISA, coated human 4-1BB-His, detection with anti-human IgG-HRP, OD450
T1 construct: not shown: His tag

[2] = target: 4-1BB expressed on cells (HEK293-4-1BB, 4-1BB-Jurkat, GloResponse NFκB-luc2/4-1BB Jurkat) (UniProt Q07011); assay: Flow cytometry on HEK293-4-1BB cells, PE anti-human IgG, MFI
[3] = target: human 4-1BB-biotin protein (human, UniProt Q07011 24-186, limits assumed); assay: Dual antigen capture ELISA: coated CLDN18.2 VLP, antibody titrated, then human 4-1BB-biotin at 1 ug/ml and streptavidin-HRP, OD450
[4] = target: T2, 4-1BB expressed on cells (HEK293-4-1BB, 4-1BB-Jurkat, GloResponse NFκB-luc2/4-1BB Jurkat) (UniProt Q07011 24-255, limits assumed); assay: Flow cytometry on HEK293-4-1BB cells, PE anti-human IgG, MFI
T2 construct: whole, on cells; also called HEK293 expressed 4-1BB; HEK293-4-1BB cells

[5] = target: T3, human 4-1BB-Fc protein (human, UniProt Q07011 24-186); assay: ELISA, coated human 4-1BB-Fc
T3 construct: not shown: Fc part
T3 sequence (Q07011 24-186 limits assumed): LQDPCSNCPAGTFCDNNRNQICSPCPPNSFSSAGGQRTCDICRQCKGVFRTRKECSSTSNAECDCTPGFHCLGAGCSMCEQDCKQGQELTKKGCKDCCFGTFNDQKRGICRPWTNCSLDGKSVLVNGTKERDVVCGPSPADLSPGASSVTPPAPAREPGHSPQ

T1 sequence (Q07011 24-186 limits assumed): as above
T2 sequence (Q07011 24-255 limits assumed): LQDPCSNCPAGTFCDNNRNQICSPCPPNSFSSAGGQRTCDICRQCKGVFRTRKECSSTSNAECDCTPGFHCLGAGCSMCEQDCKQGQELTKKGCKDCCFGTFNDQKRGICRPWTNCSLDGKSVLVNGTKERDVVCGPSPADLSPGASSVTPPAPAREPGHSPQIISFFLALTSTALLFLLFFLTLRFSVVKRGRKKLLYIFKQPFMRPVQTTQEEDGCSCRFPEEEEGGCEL
4-1BB expressed on cells (HEK293-4-1BB, 4-1BB-Jurkat, GloResponse NFκB-luc2/4-1BB Jurkat) (UniProt Q07011), sequence (Q07011 24-255 limits assumed): as above
human 4-1BB-biotin protein, sequence (Q07011 24-186 limits assumed): as the sequence (Q07011 24-186 limits assumed) above

“urelumab (BMUR) anti-4-1BB monoclonal antibody” gave an EC50 (read off the curve) [1] of 0.6 nM and an EC50 (read off the curve) [2] of 0.06 nM.

B1: 72C1B6A3 anti-CLDN18.2 monoclonal antibody (antibody, V domains shown)
VH: QVQLVQSGAEVKKPGASVKVSCKASGYTFTTYPIEWVRQAPGQRLEWMGNFHPYNDDTKYNEKFKGRVTITRDTSASTAYMELSSLRSEDTAVYYCARRAYGYPYAMDYWGQGTLVTVSS
VL: DIVMTQSPDSLAVSLGERATINCKSSQSLLNAGNQKNYLTWYQQKPGQPPKLLIYRASSRESGVPDRFSGSGSGTDFTLTISSLQAEDVAVYYCQNDYIYPYTFGGGTKLEIK
notes: also called CLDN18.2 mAb 72C1B6A3
B1: no binding (tested: 100 nM) [3].

B2: 1A10 anti-4-1BB monoclonal antibody (antibody, V domains shown)
VH: EVQLLESGGGLVQPGGSLRLSCAASGFTFSSYDMSWVRQAPGKGLEWVSWISYSGGSIYYADSVKGRFTISRDNSKNTLYLQMNSLRAEDTAVYYCARDAQRNSMREFDYWGQGTLVTVSS
VL: QSVLTQPPSASGTPGQRVTISCSGSSSNIGNNYVTWYQQLPGTAPKLLIYADSHRPSGVPDRFSGSKSGTSASLAISGLRSEDEADYYCATWDYSLSGYVFGGGTKLTVL
B2 was tested, and the “EC50 (read off the curve)” value [1] was roughly 0.5 nM and the “EC50 (read off the curve)” value [4] was roughly 0.2 nM.

B3: 41B01.02 anti-4-1BB antibody (antibody, V domains shown)
VH: B2 VH with N103Q
VL: B2 VL with Q16R
notes: Full human anti-4-1BB antibody
B3: binds [5].
